According to patent publication US8283521B2, “Transcription factor gene induced by water deficit conditions and abscisic acid from Helianthus annuus, promoter and transgenic plants” (Bioceres S.A., priority 2003, dated 2012):

Tested on: gus gene
Experiment: Histochemical analysis of β-glucuronidase activity in transformed plants
Format: in vivo, Arabidopsis thaliana
Conditions: for expression of gus gene in cotyledons: 2-day germination seedlings; for induction of the promoter construct by ABA: gus reporter, ABA treatment; for expression of gus gene in different development stages and organs: several independent lines, all studied organs
Text: When the construct including the complete segment of the small allele was employed, the expression of the gus gene in the cotyledons of 2-day germination seedlings was also viewed. However, and differing from the region 0 to −400, the expression of gus gene was very intense in the leaves and roots of the young seedlings (FIG. 20).
The inventive plants from A. thaliana that resulted resistant to kanamycin in the selection and PCR reaction of were subjected to histochemical β-glucuronidase activity test. The tested embryos and organs were washed with buffer 50 mM Na2HPO4 pH 7. They were then transferred to a solution 50 mM Na2HPO4 pH 7.0, 1% Triton X-100, 2 mM X-gluc (5-bromine-4-chlorine-3-indolil β-D-glucuronide), subjected to vacuum for 5 minutes and incubated at 37° C. in darkness between 2 and 12 hours. After incubation they were fixed in 10% formaldehide solution, 50% ethanol and 5% ascetic acid for 10 minutes at room temperature. Formaldehide was removed, ethanol 70% was added and conserved at 4° C.
The histochemical analysis was made in 2, 10 and 20 day-old seedlings grown in Petri dishes containing MS medium and 0.8% agar and adult plants grown in flowerpots containing soil.

B1: construct including the complete segment of the small allele: promoting region from 0 to −1015 (small allele, SEQ ID NO 10) cloned in pBI101.3 driving gus (nucleic acid, listed as Helianthus annuus)
DNA: GATCCAATTGGACCACCTGGCACATCGTATCTTATCTCTTTTGTCGTTTCCAACACACCACAACACACCTACAAACGTGTCAATTCACACTTCACCAATTTCATTTCCTTTTAGTCAATCATATTAAAAGTAGTAGCCCCCACCCCCATTTGTTACCTACCATTTCCCACTTTAATAATCACCCACGCTATGTCCACTTGTACTTTTGTTTGCACACAACTCTTCCCATAAAATATCAAACCAAATTTTTTTTAATGGAAAACAAATACTTCAAATGCACTATTGGTGAAATTCACCACATCAGAATACACCCGTCTCTACTCATCTACTGGCCAACGAATCTTCACGGGGGAAACCCTCACTCGTCTACTGGGACTACTGGCGCTTCAAAATGGACTACTGACAAAATTCACCACATCGGGATACACTTGTCTACTGCGGTGAGGTAAAATCCGCCGCTCAGCTCAATGATCGAACTAGCGATCGCCACCCACTCACCTTGTCTCCCATCATCACCAGGTGCCGCCAAAACAAAATGTTGGGGGCGGGAATTGAACCTAGGTCCAGTGGCGCACCCATGAATTTTTTTTCTAGGGATGCGAACGAGTGATTTAACCATACTTTTAAGAGGTGCGATCGGAAATTTTACCTATAAAATATACTAAAAAAATTTCAAGGGTCCGCCCACCCACCCCTTAACCTAAGTCCGCCTCTGCCTGGATCACGTGAAACATCAGGTCTCTCTCTTACCAGTTCACCTACAACTCATTGACAAAATATCAAAACCATATGATTTTGAGTTTTATCTCAACCGAAAGTGACATCATGACAGAGAATCGACATAACCAAAACGTGTAAACGTACAACTCACCATTGCGTTGAAAAGGACAAAACAGGTAGGATTCTTGTCAAATTCAACGCGTACACCTGTGCTTCATCTAAACCCCATACTTTAAGAACCTTTATAAAGACCACTCACTATATATACACATATATAATATCACTTATCAAACCC
modifications: cloned in pBI101.3 driving gus
- expression of gus gene in cotyledons: also viewed
- expression of gus gene during the reproductive stage (reproductive stage): not detected any expression
- expression of gus gene in leaves and roots (young seedlings): very intense

B2: construct 0 to −400: Hahb-4 promoter fragment, nucleotides 805 to 1221 of SEQ ID NO 3, cloned into pBI101.3 driving gus (nucleic acid, listed as Helianthus annuus)
DNA: GGATGCGAACGAGTGGTTTAACCATACTTTTAAGAGGTGCGATCGGAAATTTTACCTATAAAATACACTAAAAAAGTTCCAAGGGTCCACCCACCCCTTAACCTAAGTCCGCCTTTGTCTGGATCACGTGAAACATCAGGTCTCTCCCTTACCAGTCCAGCTACGACTCATTGACAAAATATCAAAACCATATGATTTTGAGTTTTATCTCAACCGAAAGTGACATCATGACAGAGAATCGACATAACCAAAACGTGTAAACGTACAACTCACCATTGCGTTGAAAAGGACAAAACAGGTAGGATTCTTGTCAAATTCAACGCGTACACCTGTGCTTCATCTAAACCCCATACTTTAAGAACCTTTATAAAGACCACTCACTATATATACACATATATAATATCACTTATCAAACCC
modifications: cloned in pBI101.3 driving gus; promoter (1)..(1221) Large allele
- expression of gus gene in cotyledons: enough to drive the expression of gene gus
- expression of gus gene in young seedlings (10 germination days): not detectable
- induction of the promoter construct by ABA: capable of being induced by ABA

B3: region 0 to −200: promoter fragment, nucleotides 1011 to 1221 of SEQ ID NO 3, in pBI101.3 (nucleic acid, listed as Helianthus annuus)
DNA: ATCTCAACCGAAAGTGACATCATGACAGAGAATCGACATAACCAAAACGTGTAAACGTACAACTCACCATTGCGTTGAAAAGGACAAAACAGGTAGGATTCTTGTCAAATTCAACGCGTACACCTGTGCTTCATCTAAACCCCATACTTTAAGAACCTTTATAAAGACCACTCACTATATATACACATATATAATATCACTTATCAAACCC
modifications: in pBI101.3; promoter (1)..(1221) Large allele
- induction of the promoter construct by ABA: not induced by ABA
- expression of gus gene in different development stages and organs: not expressed

B4: region 0 to −300: promoter fragment, nucleotides 904 to 1221 of SEQ ID NO 3, in pBI101.3 (nucleic acid, listed as Helianthus annuus)
DNA: AACCTAAGTCCGCCTTTGTCTGGATCACGTGAAACATCAGGTCTCTCCCTTACCAGTCCAGCTACGACTCATTGACAAAATATCAAAACCATATGATTTTGAGTTTTATCTCAACCGAAAGTGACATCATGACAGAGAATCGACATAACCAAAACGTGTAAACGTACAACTCACCATTGCGTTGAAAAGGACAAAACAGGTAGGATTCTTGTCAAATTCAACGCGTACACCTGTGCTTCATCTAAACCCCATACTTTAAGAACCTTTATAAAGACCACTCACTATATATACACATATATAATATCACTTATCAAACCC
modifications: in pBI101.3; promoter (1)..(1221) Large allele
- induction of the promoter construct by ABA: not induced by ABA
- expression of gus gene in different development stages and organs: not expressed
